Assay results: US20090202531A1 (Novartis, published 2009)

What was measured:
human FcγRIIIa-158F [1] = biological target: T1, human FcγRIIIa-158F (human, UniProt P08637 17-208, limits assumed); assay: Biacore (SPR); reference rituximab on the same allele
T1 construct: also called FcγRIIIa aa158F allele

human FcγRIIIa-158F [2] = biological target: T1, human FcγRIIIa-158F; assay: Biacore (SPR)
human FcγRIIIa-158V = biological target: T2, human FcγRIIIa-158V (human, UniProt P08637 17-208); assay: Biacore (SPR)
T2 construct: also called FcγRIIIa aa518V allele (sic); FcγRIIIa aa158V
T2 sequence (P08637 17-208 F176V): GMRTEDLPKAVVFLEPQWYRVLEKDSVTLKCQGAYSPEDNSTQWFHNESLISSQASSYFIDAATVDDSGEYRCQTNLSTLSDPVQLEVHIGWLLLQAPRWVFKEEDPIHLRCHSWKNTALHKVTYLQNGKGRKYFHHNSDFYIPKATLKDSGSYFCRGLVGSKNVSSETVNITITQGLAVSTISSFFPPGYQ

T1 sequence (P08637 17-208 limits assumed): as the sequence (P08637 17-208 F176V) above, with V160F counted along it

B1: monoclonal antibody CHIR-12.12 (antibody)
heavy: not shown
light: DIVMTQSPLSLTVTPGEPASISCRSSQSLLYSNGYNYLDWYLQKPGQSPQVLISLGSNRASGVPDRFSGSGSGTDFTLKISRVEAEDVGVYYCMQARQTPFTFGPGTKVDIRRTVAAPSVFIFPPSDEQLKSGTASVVCLLNNFYPREAKVQWKVDNALQSGNSQESVTEQDSKDSTYSLSSTLTLSKADYEKHKVYACEVTHQGLSSPVTKSFNRGEC
notes: Fully human anti-CD40 IgG1 kappa; also called CH12.12
fold higher affinity compared with rituximab (human FcγRIIIa-158F [1]): 4.6 fold | Kd (human FcγRIIIa-158F [2]): 2800 nM | Kd (human FcγRIIIa-158V): 492 nM
